Measurements reported in US20200087363A1 (IMMATICS BIOTECHNOLOGIES, published 2020).

Each binder was assayed against T1, HLA-B*44:05 (human) (assay: UV peptide exchange, anti-b2m ELISA).
T1 construct: also called peptide-receptive MHC class I molecule
Method: Only peptide candidates that can effectively bind and stabilize the peptide-receptive MHC molecules prevent dissociation of the MHC complexes. To determine the yield of the exchange reaction, an ELISA was performed based on the detection of the light chain (β2m) of stabilized MHC complexes. The assay was performed as generally described in Rodenko et al. (Rodenko et al., 2006)
96 well MAXISorp plates (NUNC) were coated over night with 2 ug/ml streptavidin in PBS at room temperature, washed 4× and blocked for 1 h at 37° C. in 2% BSA containing blocking buffer. […] Peptide-MHC monomers of the UV-exchange reaction were diluted 100-fold in blocking buffer. Samples were incubated for 1 h at 37° C., washed four times, incubated with 2 ug/ml HRP conjugated anti-β2m for 1 h at 37° C., washed again and detected with TMB solution that is stopped with […]. Absorption was measured at 450 nm.
A peptide exchange yield greater than 75% was found for ALNGDIYVW in this work. A peptide exchange yield of 20 to 50% was found for NEILTIHF in this work. A peptide exchange yield of 20 to 50% was found for SEFLLRIF in this work. A peptide exchange yield of 20 to 50% was found for SVNPIIYGF in this work. A peptide exchange yield greater than 75% was found for TEQALRLSV in this work. A peptide exchange yield greater than 75% was found for KEAFGPQAL in this work. A peptide exchange yield of 50 to 75% was found for SEDTIHTHL in this work. A peptide exchange yield of 50 to 75% was found for AEFVPKADLL in this work. A peptide exchange yield of 50 to 75% was found for SEAKEIKSQL in this work. A peptide exchange yield of 20 to 50% was found for LEGGGRGGEF in this work. A peptide exchange yield of 50 to 75% was found for EEIFAHLGL in this work. A peptide exchange yield greater than 75% was found for EEEVFSGMKL in this work. A peptide exchange yield of 50 to 75% was found for YERPTLVEL in this work. A peptide exchange yield of 50 to 75% was found for RELRPLFDRQW in this work. A peptide exchange yield greater than 75% was found for MEIEGAGNFL in this work. A peptide exchange yield greater than 75% was found for EELHAALSEW in this work. A peptide exchange yield of 20 to 50% was found for RELPLVLLA in this work. A peptide exchange yield greater than 75% was found for MEILWKTLT in this work. A peptide exchange yield of 50 to 75% was found for AEGEPPPALAW in this work. A peptide exchange yield of 50 to 75% was found for KELSVFKKF in this work. A peptide exchange yield of 10 to 20% was found for LEEPMPFFY in this work. A peptide exchange yield of 20 to 50% was found for AGSPVMRKW in this work. A peptide exchange yield of 20 to 50% was found for MEHSDENIQFW in this work. A peptide exchange yield of 50 to 75% was found for RENPGMFSW in this work. A peptide exchange yield greater than 75% was found for KEMQVTISQQL in this work. A peptide exchange yield of 50 to 75% was found for AEGEPPPAL in this work. A peptide exchange yield of 50 to 75% was found for SEDPEKYYL in this work. A peptide exchange yield of 50 to 75% was found for LEMLDAHRL in this work. A peptide exchange yield of 50 to 75% was found for TEGDVLNYIF in this work. A peptide exchange yield of 50 to 75% was found for REILHAQTL in this work. A peptide exchange yield of 50 to 75% was found for DENDAGNLITF in this work. A peptide exchange yield greater than 75% was found for EEHSSKLQTSL in this work. A peptide exchange yield of 50 to 75% was found for MEIKGTVTEF in this work. A peptide exchange yield of 50 to 75% was found for GETQQHIQL in this work. A peptide exchange yield of 50 to 75% was found for MEGAALLKIF in this work. A peptide exchange yield of 20 to 50% was found for HEVAQDDHL in this work. A peptide exchange yield greater than 75% was found for TEEITEGVW in this work. A peptide exchange yield greater than 75% was found for LEIMTNLVTL in this work. A peptide exchange yield of 50 to 75% was found for NEAGEVSKHF in this work. A peptide exchange yield of 50 to 75% was found for LEALLSDLF in this work. A peptide exchange yield of 50 to 75% was found for AEHDMKSVL in this work. A peptide exchange yield greater than 75% was found for TEANVQALF in this work. A peptide exchange yield of 50 to 75% was found for WEVEVGDRTDW in this work. A peptide exchange yield of 20 to 50% was found for EVEVGDRTDW in this work. A peptide exchange yield of 20 to 50% was found for EEHIFSAF in this work. A peptide exchange yield of 50 to 75% was found for SEHSLEGQKF in this work. A peptide exchange yield of 50 to 75% was found for REAEEKEAQL in this work. A peptide exchange yield of 50 to 75% was found for REEEANVVL in this work. A peptide exchange yield of 20 to 50% was found for DEDLFHKL in this work. A peptide exchange yield greater than 75% was found for EEQLLQKVM in this work. A peptide exchange yield of 20 to 50% was found for EEFLRPRSL in this work. A peptide exchange yield greater than 75% was found for TELEVKIRDW in this work. A peptide exchange yield of 50 to 75% was found for SEASVYLFRF in this work. A peptide exchange yield of 50 to 75% was found for AELPENLKALF in this work.
